The assay concerns the target BclXL_FL, full-length human BclXL (residues 1–233) (human), Q07817. In words: ITC. In general terms: Isothermal titration calorimetry measures the heat released or taken up as one component is titrated into another.

BclXL_FL, full-length human BclXL (residues 1–233) (human), Q07817, sequence (Q07817 whole entry, the tested form may be a part): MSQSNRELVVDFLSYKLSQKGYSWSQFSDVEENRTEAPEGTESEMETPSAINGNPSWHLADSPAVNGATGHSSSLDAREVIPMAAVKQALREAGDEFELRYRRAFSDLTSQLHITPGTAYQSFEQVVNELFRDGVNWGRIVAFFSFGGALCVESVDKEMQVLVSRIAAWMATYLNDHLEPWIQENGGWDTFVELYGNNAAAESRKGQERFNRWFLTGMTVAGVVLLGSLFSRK

Broadly, the Kd is the constant that tells how readily two partners part at equilibrium. Turning to DIIRNIARHLAQVGDSMDRS (modifications not checked) [Bid_BH3 peptide (20-mer spanning the BH3 domain of human Bid)], the Kd amounted to 9.97 µM and the dH is -78.4 kJ/mol.

Source of the values: paper PMC3268818.
